Test results reported in the DeepSol protein solubility set.

Assay: soluble on expression in E. coli; label from the status in PepcDB or PDB records

Row | Sequence | soluble on expression in E. coli
1 | QPALPEAMYQLLSGAHYRTSPLDLRRMMDAPGQAFRCARTGGAVAGALWLVAEGGLSPELSRAVWAGFRRPRGNLVAQSLAAHGGSPLAATLRGLRVSRIAVHPTRQREGLGRKMIADIAADAAGYDYLSVSFGYTAELWRFWQRCG | not soluble
2 | MGSDKIHHHHHHLPTIEQNRAPPFLAGLFCAIDLERRFLSNGKQKDFIMLDANTAQNPALLTVGYEGTDLRRFLACLEQSGVKTLVDVRERAQSRKKGFSKTALAEALAGIGIRYVHLRDLGDPKPGRDAARAGDYETFRKVFTSHMDTDAAKSALSELDTLAKEDRTCILCFERCHTECHRAIVATYLKELSPYDVVHVEV | not soluble
3 | MSLRVLGIETSCDETAVAVLDDGKNVVVNFTVSQIEVHQKFGGVVPEVAARHHLKNLPILLKKAFEKVPPETVDVVAATYGPGLIGALLVGLSAAKGLAISLEKPFVGVNHVEAHVQAVFLANPDLKPPLVVLMVSGGHTQLMKVDEDYSMEVLGETLDDSAGEAFDKVARLLGLGYPGGPVIDRVAKKGDPEKYSFPRPMLDDDSYNFSFAGLKTSVLYFLQREKGYKVEDVAASFQKAVVDILVEKTFRLARNLGIRKIAFVGGVAANSMLREEVRKRAERWNYEVFFPPLELCTDNALMVAKAGYEKAKRGMFSPLSLNADPNLNVEGHHHHHH | soluble
4 | MEKVGEDEEKTIEEANNSTEETKSDKEEERIKGTIADQVDPVDSTEEGSTGPSNSHTVVSKDHDFSESDMEDEEQVLEFFRRNHGFSPEVTKRNNFPYVNNSERMVLQFQEDTSAETEQTNEMFHSLNDSNEILEGTKSSSASDEDTEDSSSNSDLDSSLSRYYFDGSLPVSAHVEEFETHQDESLVPKDENQVCNPNWWGMI | not soluble
5 | GMSAKDVFHQVVKIALEKDGWQITNDPLTISVGGVNLSIDLGAEKLIAAEREGEKIAVEVKSFLERSSAISEFHTALGQFINYRGALRRRQPERVLYLAVPLTTYKTFFQLDFPKEMIAENQVKMLIYDVEQEVIFQWIN | soluble
6 | MSLRILAIDTATEACSVALWNNGTINAHFELCPREHTQRILPMVQEILAASGASLNEIDALAFGRGPGSFTGVRIGIGIAQGLALGANLPMIGVSTLATMAQGAWRKTGATRVLAAIDARMGEVYWAEYQRDAQGVWQGEETEAVLKPERVGERLKQLSGEWATVGTGWSAWPDLAKECGLTLHDGEVSLPAAEDMLPIASQKLAAGETVAVEHAEPVYLRNEVAWKKLPGKEEGHHHHHH | soluble
7 | GSMFTPKPPQDSAVIKAGYCVKQGAVMKNWKRRYFQLDENTIGYFKSELEKEPLRVIPLKEVHKVQECKQSDIMMRDNLFEIVTTSRTFYVQADSPEEMHSWIKAVSGAIVAQRGPGRSASSEHP | soluble
8 | MDEYNKNPEENDKPEYDMKMEALLKVLNREIPIKAHAHRADDILTAIRIAKEFGLRLTIEHCTEGHLIKDILAEEGVSAIVGSSLTDRSKVELRNLSLKTPGILAKAGVKVAIMTDHPCTPIQYLILCAAMAVREGMDEMEALRAVTINAAELTGIADRVGSIEVGKDADIAIYDGHPFDIRSKVSTTIINGKVVYERKKHERD | not soluble
9 | MGAMIVKEVYETAEKIKSMEIRGAGRIARAAAQALMIQAEKSKAKEPEELWNELKVASKILYNTRPTAVSLPNALRYVMHRVKAAYLGGADLETLRFTAINSAKEFIYNSEKAIERIGEIGAKRIEDGDIIMTHCHSKAAISVMKKAFEQGKNIKVIVTETRPKWQGKITAKELASYGIPVIYIVDSAARHYMKMTDKVVMGADSITANGAVINKIGTSLIALTAKEHRVWVMIAAETYKFHPATMLGQLVEIEMRDPTEVIPEEELRTWPKNIEVWNPAFDVTPPEYIDVIITERGIIPPYAAIDILKEEFGWALKYKEPWED | soluble
10 | QYVKPELPDVATLKDVELQTPMQVFSQDGKLIAQFGEKRRIPVTYDEIPQDLIHALIATEDSRFYEHPGIDPIGITRAAVVVALSGSAKQGASTITQQLARNFFLSNEKKLMRKIKEIFIAIHIEQLLSKQEIMELYVNKIFLGYRSYGFGAAAQVYFGKSLNELSLSEIATLAGMPKAPSTMNPIYSLERATKRRNVVLMRMLDEKYITQEQFDEARNEPIIARYHSAEIEVSAPYVAELARAWAVKEYGEEKAYTSGLNIYMTVDSKLQDAANKAAVNNLMAYDERHGYRGAEKVLWKEGEAAWDAEQIEKHLKGQPTYGDLYPAVVTKVEGKTAQVVVKNNDAQTIPWTGINWARKFLTDNRQGSTPKSAQEVLAAGEQIWVRELTTTDEDGNTQSSWKLSQVPSANT | not soluble
11 | MDVTFLTKNVQINGTQFKILLQNGQGECALIALANVLLISPAHARYAQEISRLVRGKETVTLNELVQTLADMGVQNPNGTDVDKQQLLQILPQLYSGLNINPEFNGSFEDGVEMSIFRLYNVGIVHGWIIDGDNDPNSYEHVSKYSYMGAQKVLVQSYEIQKNNAQFENSEQIQSDAPYLKSFLARSATQLTEYGLTHLREILVERSYAVLFRNDHFCTLYKNNGELFTLVTDPTYRNRKDINWQSLKSVNGSQDSYYTGNFIPTSLERTETTATGQNESYISNPFSDQNTGHVTSNQVNSGASGVQQIEDDEELARRLQEQEDMRAANNMQNGYANNGRNHQRERFERPEKNSKKNKFLPFNGSNKEKKRDKLKKNCVIM | soluble
12 | MPVLHNRISNDALKAKMLAESEPRTTISFYKYFHIADPKATRDALYQLFTALNVFGRVYLAHEGINAQISVPASNVETFRAQLYAFDPALEGLRLNIALDDDGKSFWVLRMKVRDRIVADGIDDPHFDASNVGEYLQAAEVNAMLDDPDALFIDMRNHYEYEVGHFENALEIPADTFREQLPKAVEMMQAHKDKKIVMYCTGGIRCEKASAWMKHNGFNKVWHIEGGIIEYARKAREQGLPVRFIGKNFVFDERMGERISDEIIAHCHQCGAPCDSHTNCKNDGCHLLFIQCPVCAEKYKGCCSEICCEESALPPEEQRRRRAGRENGNKIFNKSRGRLNTTLCIPDPTELEHHHHHH | soluble
13 | MSLSRAFLVAAPSSGSGKTTITLGLLRLFARRGMAVQPFKCGPDYLDTMLHAMAASTGETARPGLNLDTFMASKEHVRSLFARNAASADISVIEGVMGLFDGAEKSDGSSAEIAALLGLPVIMVIDGSKIAYSAAPILYGFKHFDPSVKVAGVIFNRVGSASHYSHLEAAAKDVGVEPLGYLPRNSDITISERHLGLNTSAEYDREKLIDAMAEHIEKTVNIERLLDVARIELPEIEQAQPVTKKLDKVIAVARDEAFNFIYHDNLETLKRYGEVRFFSPLHDRELPKADLVYLAGGYPELHAEALAANKTMRKAIAEWCRNRGATWAECGGLMYLGKTLTLADGAAHPMCGVLDLDTTMQEARLTLGYRKVYPAGADGVELRGHEFHYSRIWRQGEIDTIAEIRNARGQQVGTKLFRVGNTIASYLHLYWGEHDYLANWFDVLREGHHHHHH | soluble
14 | MAHHHHHHMLHGNWKYLRQGGRQWMEKQARDPFVLEARRRGYVARSAFKLLEMDDKFGLFARNHTRVVVDIGCSPGGWLQVARERCGDRCALFGVDLLHVSPTVTGAVCIQGDFTDMAIQQQLLSRMENVHANGLVDVVMSDMCLNRGSGGTDDRQKQMQLNMEALAFATSQLRTGGNFVCKVLGTPTAFEELRGELQRWFVRSSLCKPFSSRRGSDEAFMVCLAKRETPRPRGCNIAEGETRDFGLDDWPGFLRRPRQKR | not soluble
15 | QLIAATGCPTGIAHTYMAQEALEQAAKRKGITIKVETHGQIGIENELTPAEIQGAEAVIIAADKDVQAERFAGKRIIDVPVSVGIKEADRLIEEALAGKGSIA | not soluble
16 | MAHHHHHHSLSFSCPLCHQPLSREKNSYICPQRHQFDMAKEGYVNLLPVQHKRSRDPGDSAEMMQARRAFLDAGHYQPLRDAIVAQLRERLDDKATAVLDIGCGEGYYTHAFADALPEITTFGLDVSKVAIKAAAKRYPQVTFCVASSHRLPFSDTSMDAIIRIYAPCKAEELARVVKPGGWVITATPGPRHLMELKGLIYNEVHLHAPHAEQLEGFTLQQSAELCYPMRLRGDEAVALLQMTPFAWRAKPEVWQTLAAKEVFDCQTDFNIHLWQRSYEG | soluble
